Assay results taken from patent publication US20240076412A1 (NATIONAL INSTITUTE OF BIOLOGICAL SCIENCES BEIJING, published 2024).
Like-named read-outs stand apart in the source and are kept apart here.

Columns and labels:
[1] = target: T1, extracellular domain of human CD47 (CD47-ECD), residues 1-118, with His6 tag and Avi tag (human, UniProt Q08722 19-136, biotin modification at the C-terminus (Avi tag, BirA) in the form called CD47-Bio); assay: SPR (Biacore T200), IgG1 captured on CM5 chip, CD47 as analyte; the column head also prints x 10^6, not applied because kd/ka of the cells gives the KD cell in M [Con't]
T1 construct: also called CD47-ECD-His6; CD47-Bio; not shown: His6 tag and Avi tag from the vector

[2] = target: T1, extracellular domain of human CD47 …; assay: SPR (Biacore T200), IgG1 captured on CM5 chip, CD47 as analyte; the column head prints KD (nM), but the cell equals kd/ka in M [Con't]
Method: (§1) 1 μg/mL of anti-CD47 full length IgG1 antibodies were captured onto a CM5 chip for 30 s at 10 μl/min. CD47 in 2-fold serial dilutions (starting at 100 nmol, seven concentrations total) were injected over the antibody-bound surface for 120 s at 30 μl/min followed by a 240 s dissociation phase. After each cycle, the surface was regenerated with magnesium chloride.

[3] = target: T1, extracellular domain of human CD47 …; assay: SPR (Biacore T200), IgG1 captured on CM5 chip, CD47 as analyte; the column head also prints x 10^-3, not applied because kd/ka of the cells gives the KD cell in M [Con't]
Method: as §1

[4] = target: T1, extracellular domain of human CD47 …; assay: SIRPα competition ELISA, CD47-ECD-His6 coated, competitor 0.5 nM biotinylated SIRPα-d1-mFc
Method: (§2) The wash, development and read steps are the same as hCD47 binding ELISA. The OD450 values were transformed to Inhibition % in data analysis.
(§3) B. Antibodies in the form of full-length IgG1 were 3-fold serial diluted (starting at 40 nM, 12 concentrations total).

[5] = target: T1, extracellular domain of human CD47 …; assay: CD47 binding ELISA, bio-CD47 captured on neutravidin, full-length IgG1
Method: (§4) CD47 binding ELISA: 2 μg/mL of neutravidin (Sigma) in phosphate buffered saline (PBS) was coated in U-bottom 96-well plate (Nunc, MaxiSorp™), 100 μL per well, at 4° C. overnight or 37° C. for 1 hour. 2 μg/mL of bio-CD47 in PBS containing 2% nonfat milk were then captured onto the plates at 100 μL per well by incubation at 30° C. for 1 hour. […] In between each incubation step, the ELISA plate was washed for 6 times with PBST solution (0.05% Tween20 containing PBS) at 200 μL per well. Followed by HRP-conjugated antibody incubation, the ELISA signal was developed by incubating with TMB substrate (Sigma) for 5-10 mins at 30° C. and then stop the reaction with 2M H₂SO₄ at 50 μL per well. The absorbance at 450 nm was read by a microplate reader (Bio-Rad). For scFv-Fc or IgG1 based ELISA, the method was basically the same as described above for phage-scFvs except the bound antibodies were detected by HRP-conjugated mouse anti-human IgG Fc antibody (Sigma).
(§5) In FIG. 3, A. Antibodies in the form of full-length IgG1 were 3-fold serial diluted (starting at 10 nM, 12 concentrations total). B. Antibodies in the form of full-length IgG1 were 3-fold serial diluted (starting at 40 nM, 12 concentrations total).

[6] = target: T1, extracellular domain of human CD47 …; assay: as above; remark: listed apart in the source
Method: as §4, §5

[7] = target: extracellular domain of human CD47 (CD47-ECD), residues 1-118, with His6 tag and Avi tag (human) (UniProt Q08722); assay: SPR (Biacore), scFv-hFc captured on anti-human IgG Fc CM5 chip, CD47 as analyte, 1:1 model; column head x 10^-3 applied
[8] = target: extracellular domain of human CD47 (CD47-ECD), residues 1-118, with His6 tag and Avi tag (human) (UniProt Q08722); assay: competition of the CD47/SIRPα interaction (% inhibition); the format is not stated for this panel, taken as the SIRPα competition ELISA of Example 1 with labelled SIRPα as competitor
[9] = target: extracellular domain of human CD47 (CD47-ECD), residues 1-118, with His6 tag and Avi tag (human) (UniProt Q08722); assay: SPR (Biacore), scFv-hFc captured on anti-human IgG Fc CM5 chip, CD47 as analyte, 1:1 model; column head x 10^6 applied
[10] = target: extracellular domain of human CD47 (CD47-ECD), residues 1-118, with His6 tag and Avi tag (human) (UniProt Q08722); assay: SPR (Biacore), scFv-hFc captured on anti-human IgG Fc CM5 chip, CD47 as analyte, 1:1 Langmuir model
[11] = target: extracellular domain of human CD47 (CD47-ECD), residues 1-118, with His6 tag and Avi tag (human) (UniProt Q08722); assay: phage-scFv ELISA on captured CD47-Bio
[12] = target: T1, extracellular domain of human CD47 …; assay: SIRPα competition ELISA, CD47-ECD-His6 coated, competitor 0.8 nM biotinylated SIRPα-d1-mFc
Method: as §2, §3

[13] = target: T1, extracellular domain of human CD47 …; assay: SPR (Biacore T200), IgG1 captured on CM5 chip, CD47 as analyte [Con't]
Method: SPR was performed on a Biacore T200. 1 μg/mL of anti-CD47 full length IgG1 antibodies were captured onto a CM5 chip for 30 s at 10 μl/min. CD47 in 2-fold serial dilutions (starting at 100 nmol, seven concentrations total) were injected over the antibody-bound surface for 120 s at 30 μl/min followed by a 240 s dissociation phase. After each cycle, the surface was regenerated with magnesium chloride.

[14] = target: T1, extracellular domain of human CD47 …; assay: self-competition of unlabelled SIRPα against labelled SIRPα for CD47 (% inhibition); the sheet prints only SIRPα, taken as the unlabelled SIRPα-d1-mFc of the competition ELISA of Example 1

B1: AB6.12 (antibody, V domains shown)
VH: QMQLVQSGAEVKKTGSSVKVSCKASGFNIKDYYLHWVRQAPGQALEWMGWIDPDQGDTEYAQKFQDRVTITRDRSMSTAYMELSSLRSEDTAMYYCNAAYGSSSYPMDYWGQGTTVTVSS
VL: NIQMTQSPSAMSASVGDRVTITCKASQDIHRYLSWFQQKPGKVPKHLIYRANRLVSGVPSRFSGSGSGTEFTLTISSLQPEDFATYYCLQYDEFPYTFGGGTKVEIKR
- kon [1]: 1.06e+06 M⁻¹ s⁻¹
- Kd [2]: 1.76 nM
- koff [3]: 0.00186 s⁻¹
- IC50 (read off the curve) [4]: ~6 nM
- EC50 (read off the curve) [5]: ~0.2 nM

B2: B6H12 (antibody)
chain: EVQLVESGGDLVKPGGSLKLSCAASGFTFSGYGMSWVRQTPDKRLEWVATITSGGTYTYYPDSVKGRFTISRDNAKNTLYLQIDSLKSEDTAIYFCARSLAGNAMDYWGQGTSVTVSSGGGGSGGGGSGGGGSDIVMTQSPATLSVTPGDRVSLSCRASQTISDYLHWYQQKSHESPRLLIKFASQSISGIPSRFSGSGSGSDFTLSINSVEPEDVGVYYCQNGHGFPRTFGGGTKLEIK
- EC50 (read off the curve) [6]: ~0.02 nM

B3: BC18 scFv-hFc (Fc fusion, part only; not given: scFv linker, domain order, IgG1 Fc, not shown: another chain or arm of the molecule; a dimerising Fc or GST; small tags and cut ends)
VH: QVQLQQSGPGLVKPSETLSLTCTVSGDSINYHYWSWIRQPPGKGLEWIGYIYYSGSTTYNPSLKSRVTMSVDPSKNHFSLKLTSVTAADTALYFCARQRGAYDYWGQGTQVTVSS
VL: DIQLTQSPSSVSASVGDRVTIACRASQDIGSRLVWYQQRPGKAPKLLIYAASSLQSGVPSRFSGSGSGTDFTLTISSLQPEDFATYYCQQSYSTPYSFGQGTKLEIK
- koff [7]: 0.00328 s⁻¹
- IC50 (read off the curve) [8]: 10 nM
- kon [9]: 2.41e+06 M⁻¹ s⁻¹
- Kd [10]: 1.43 nM

B4: BC18 phage-scFv (scFv, part only; not given: scFv linker, domain order, phage fusion, V domains shown, not shown: another chain or arm of the molecule; large carriers; small tags and cut ends)
VH: QVQLQQSGPGLVKPSETLSLTCTVSGDSINYHYWSWIRQPPGKGLEWIGYIYYSGSTTYNPSLKSRVTMSVDPSKNHFSLKLTSVTAADTALYFCARQRGAYDYWGQGTQVTVSS
VL: DIQLTQSPSSVSASVGDRVTIACRASQDIGSRLVWYQQRPGKAPKLLIYAASSLQSGVPSRFSGSGSGTDFTLTISSLQPEDFATYYCQQSYSTPYSFGQGTKLEIK
- optical density at 450 nm [11]: > 0.2 OD450

B5: BC7 phage-scFv (scFv, part only; not given: scFv linker, domain order, phage fusion, V domains shown, not shown: another chain or arm of the molecule; large carriers; small tags and cut ends)
VH: QVQLQQSGPGLVKPSETLSLTCTVSGDSINYHYWSWIRQPPGKGLEWIGYIYYSGSTTYNPSLKSRVTMSVDPSKNHFSLKLTSVTAADTALYFCARQRGAYDYWGQGTLVTVSS
VL: DIVMTQSPSSVSASVGDRVTITCRASQGIGSRLAWYQQKPGKAPQLLIYAASSLQSGVPSRFSGSGSGTEFTLTISSLQPDDFATYYCQQYNSFSPITFGQGTRLEIK
- optical density at 450 nm [11]: > 0.2 OD450

B6: BC7 full-length human IgG1 (antibody, V domains shown)
VH: QVQLQQSGPGLVKPSETLSLTCTVSGDSINYHYWSWIRQPPGKGLEWIGYIYYSGSTTYNPSLKSRVTMSVDPSKNHFSLKLTSVTAADTALYFCARQRGAYDYWGQGTLVTVSS
VL: DIVMTQSPSSVSASVGDRVTITCRASQGIGSRLAWYQQKPGKAPQLLIYAASSLQSGVPSRFSGSGSGTEFTLTISSLQPDDFATYYCQQYNSFSPITFGQGTRLEIK
- IC50 (read off the curve) [12]: ~4 nM
- EC50 (read off the curve) [6]: ~0.01 nM
- Kd [13]: 4.81 nM
- koff [13]: 0.00394 s⁻¹
- kon [13]: 816000 M⁻¹ s⁻¹

B7: BC7 scFv-hFc (Fc fusion, part only; not given: scFv linker, domain order, IgG1 Fc, not shown: another chain or arm of the molecule; a dimerising Fc or GST; small tags and cut ends)
VH: QVQLQQSGPGLVKPSETLSLTCTVSGDSINYHYWSWIRQPPGKGLEWIGYIYYSGSTTYNPSLKSRVTMSVDPSKNHFSLKLTSVTAADTALYFCARQRGAYDYWGQGTLVTVSS
VL: DIVMTQSPSSVSASVGDRVTITCRASQGIGSRLAWYQQKPGKAPQLLIYAASSLQSGVPSRFSGSGSGTEFTLTISSLQPDDFATYYCQQYNSFSPITFGQGTRLEIK
- koff [7]: 0.006 s⁻¹
- kon [9]: 1.84e+06 M⁻¹ s⁻¹
- Kd [10]: 3.27 nM

B8: BC18m03 (antibody, IgG1, V domains shown)
VH: QVQLQESGPGLVKPSETLSLTCTVSGDSINYHYWSWIRQPPGKGLEWIGYIYYSGSTTYNPSLKSRVTMSVDPSKNHFSLKLTSVTAADTALYFCARQRGAYDYWGQGTLVTVSS
VL: DIQLTQSPSSVSASVGDRVTIACRASQDIGSRLVWYQQRPGKAPKLLIYAASSLQSGVPSRFSGSGSGTDFTLTISSLQPEDFATYYCQQSYSTPYSFGQGTKLEIK
- Kd [13]: 1.6 nM
- koff [13]: 0.00122 s⁻¹
- kon [13]: 762000 M⁻¹ s⁻¹

B9: BC7m03 (antibody, IgG1, V domains shown)
VH: QVQLQQSGPGLVKPSETLSLTCTVSGDSINYHYWSWIRQPPGKGLEWIGYIYYSGSTTYNPSLKSRVTMSVDPSKNHFSLKLTSVTAADTALYFCARQRGAYDYWGQGTLVTVSS
VL: DIVMTQSPSSVSASVGDRVTITCRASQDIGSRLAWYQQKPGKAPQLLIYAASSLQSGVPSRFSGSGSGTEFTLTISSLQPDDFATYYCQQYNSFSPITFGQGTRLEIK
- Kd [13]: 1.46 nM
- koff [13]: 0.00118 s⁻¹
- kon [13]: 806000 M⁻¹ s⁻¹

B10: BC7m04 (antibody, IgG1, V domains shown)
VH: QVQLQQSGPGLVKPSETLSLTCTVSGDSINYHYWSWIRQPPGKGLEWIGYIYYSGSTTYNPSLKSRVTMSVDPSKNHFSLKLTSVTAADTALYFCARQRGAYDYWGQGTLVTVSS
VL: DIVMTQSPSSVSASVGDRVTITCRASQDIGSRLAWYQQKPGKAPKLLIYAASSLQSGVPSRFSGSGSGTDFTLTISSLQPEDFATYYCQQYNSFSPITFGQGTRLEIK
- Kd [13]: 1.55 nM
- koff [13]: 0.00118 s⁻¹
- kon [13]: 763000 M⁻¹ s⁻¹

B11: SIRPα-d1-mFc fusion protein (Fc fusion, human, UniProt P78324 31-148, looked up)
chain: EEELQVIQPDKSVLVAAGETATLRCTATSLIPVGPIQWFRGAGPGRELIYNQKEGHFPRVTTVSDLTKRNNMDFSIRIGNITPADAGTYYCVKFRKGSPDDVEFKSGAGTELSVRAKP
modifications: biotinylated with Sulfo-NHS-SS-Biotin where used as the labelled ligand
notes: range 1-148; also called bio-SIRPα-d1-mFc; biotinylated SIRPα-d1-mFc; not shown: mouse IgG2a Fc fragment
- IC50 (read off the curve) [14]: ~4 nM
